Measured values reported in US20100330066A1.

Target: murine BAFF (murine) (UniProt Q9WU72)
Assay: cell-based or functional assay

UniProt Q9WU72, sequence (Q9WU72 127-309 limits assumed): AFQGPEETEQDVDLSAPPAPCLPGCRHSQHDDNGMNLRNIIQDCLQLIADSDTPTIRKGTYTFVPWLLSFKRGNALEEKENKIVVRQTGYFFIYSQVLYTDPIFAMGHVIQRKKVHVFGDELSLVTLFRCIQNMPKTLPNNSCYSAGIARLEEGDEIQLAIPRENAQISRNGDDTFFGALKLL

B cell surface IgG2a/b expression (MFI, flow cytometry) in wildtype mice after BAFF-R:Fc treatment: 1.7 fold
NF-κB2 transcription in spleen of wildtype mice, 2 days after i.p. BAFF-R:Fc (Affymetrix microarray): 1.82 fold
Substance: BAFF-R:Fc (BAFF-R Fc fusion protein) (from UniProt Q96RJ3 2-71)
